Experimental data published in article PMC6980855.
Each block holds one substance with its values, some of them ahead of it.

Legend:
[1] = target: Alexa647-labeled Bax (single cysteine mutant 126C) (human (H. sapiens)) (UniProt Q07812)
[2] = target: Alexa568-labeled BimL-4E (mouse (M. musculus)); assay: FRET or BRET; in solution, no membranes; constant Alexa568-labeled BimL protein (donor; 4 nM by the legend of Figure 3C, 20 nM by that of Figure 6-figure supplement 1) with increasing Alexa647-labeled Bax (acceptor); FRET from the decrease in Alexa568 fluorescence; fit: one site, specific binding with Hill slope
[3] = target: Alexa568-labeled BimL-dCTS (mouse (M. musculus)); assay: FRET or BRET; with mouse liver mitochondria present; 4 nM Alexa568-labeled BimL or BimL-dCTS with increasing Alexa647-labeled Bax; fit in the sheet: Kd fitting advanced (donor fixed at 4)
[4] = target: Alexa568-labeled BimL-dCTS (mouse (M. musculus)); assay: FRET or BRET; in solution, no membranes; 20 nM Alexa568-labeled BimL protein (donor) with increasing Alexa647-labeled Bcl-XL (acceptor); fit: one site, specific binding with Hill slope (BimL-dCTS: another model with a constant fixed at 4)
[5] = target: Alexa568-labeled BimL-I132E (mouse (M. musculus)); assay: as above
[6] = target: Alexa568-labeled BimL-V124E (mouse (M. musculus)); assay: as above
[7] = target: Alexa568-labeled BimL (single-cysteine mutant BimL Q41C) (mouse (M. musculus)); assay: as above
[8] = target: Alexa568-labeled BimL-CTS2A (mouse (M. musculus)); assay: as above
[9] = target: Alexa568-labeled BimL-L129E (mouse (M. musculus)); assay: as above
[10] = target: Alexa568-labeled BimL-4E (mouse (M. musculus)); assay: as above
[11] = target: Alexa568-labeled BimL-I125E (mouse (M. musculus)); assay: as above
[12] = target: BimL-dCTS (Alexa568-labeled, recombinant) (murine); assay: FRET or BRET; with mouse liver mitochondria present (Bak-/-; 0.2 mg/mL in Figure 7—figure supplement 1B); 4 nM Alexa568-labeled BimL protein, Alexa647-labeled Bax or Bcl-XL titrated; apparent Kd
[13] = target: BimL-dCTS (Alexa568-labeled, recombinant) (murine); assay: FRET or BRET; with mitochondrial-like liposomes present; constant Alexa568-labeled BimL protein (4 or 20 nM), Alexa647-labeled Bax or Bcl-XL titrated; apparent Kd
[14] = target: BimL-I125E (Alexa568-labeled, recombinant) (murine); assay: FRET or BRET; values of Figure 6B (Alexa568-labeled BimL mutant, Alexa647-labeled Bcl-XL); the sentence does not say whether in solution or with liposomes
[15] = target: BimL-dCTS (Alexa568-labeled, recombinant) (murine); assay: FRET or BRET; in solution, no membranes; constant Alexa568-labeled BimL protein (donor; 4, 10 or 20 nM), Alexa647-labeled Bax or Bcl-XL (acceptor) titrated; FRET from the decrease in Alexa568 fluorescence; Tecan infinite M1000
[16] = target: Bax (single cysteine 126C, Alexa647-labeled, recombinant) (H. sapiens) (UniProt Q07812)
[17] = target: Bax (single cysteine 126C, Alexa647-labeled, recombinant) (H. sapiens) (UniProt Q07812); remark: listed apart in the source

Sequence of Alexa647-labeled Bax (single cysteine mutant 126C) (human (H. sapiens)) (Q07812 other isoform, or with tags, fused parts or gaps mutant): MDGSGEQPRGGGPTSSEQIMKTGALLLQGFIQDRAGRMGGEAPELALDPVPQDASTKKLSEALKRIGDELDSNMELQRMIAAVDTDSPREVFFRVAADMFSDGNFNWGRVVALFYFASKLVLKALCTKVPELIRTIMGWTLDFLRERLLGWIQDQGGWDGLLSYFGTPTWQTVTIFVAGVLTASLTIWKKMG
Sequence of Bax (single cysteine 126C, Alexa647-labeled, recombinant) (H. sapiens) (Q07812 whole entry C62A): as the sequence (Q07812 other isoform, or with tags, fused parts or gaps mutant) above
Sequence of Alexa568-labeled BimL-4E (mouse (M. musculus)) (main, as listed by the source): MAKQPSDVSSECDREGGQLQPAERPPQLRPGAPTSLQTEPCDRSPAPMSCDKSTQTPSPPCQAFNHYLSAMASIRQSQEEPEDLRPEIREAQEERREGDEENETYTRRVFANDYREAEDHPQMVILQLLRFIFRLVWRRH

- EC50 of Bax (100 nM) activation by BimL: ANTS/DPX release from liposomes [1]: 0.549 nM
Substance: Alexa568-labeled BimL (single-cysteine mutant BimL Q41C) (natural protein)

- EC50 of Bax (100 nM) activation by BimL-I125E: ANTS/DPX release from liposomes [1]: 105 nM
Substance: Alexa568-labeled BimL-I125E (natural protein)

- EC50 of Bax (100 nM) activation by BimL-I132E: ANTS/DPX release from liposomes [1]: 2800 nM
Substance: Alexa568-labeled BimL-I132E (natural protein)

- EC50 of Bax (100 nM) activation by BimL-L129E: ANTS/DPX release from liposomes [1]: 2170 nM
Substance: Alexa568-labeled BimL-L129E (natural protein)

- EC50 of Bax (100 nM) activation by BimL-V124E: ANTS/DPX release from liposomes [1]: 1.21 nM
Substance: Alexa568-labeled BimL-V124E (natural protein)

- EC50 of Bax (100 nM) activation by BimL-dCTS: ANTS/DPX release from liposomes [1]: 489000 nM
Substance: Alexa568-labeled BimL-dCTS (domain or fragment)

- Kd [2]: 74900 nM
- Kd [3]: 5.75 nM
Substance: Alexa647-labeled Bax (single cysteine mutant 126C) (from UniProt Q07812 1-192) (natural protein)

- Kd [4]: 17.2 nM
- Kd [5]: 9.75 nM
- Kd [6]: 11.3 nM
- Kd [7]: 8.28 nM
- Kd [8]: 10.9 nM
- Kd [9]: 9.07 nM
- Kd [10]: 70600 nM
- Kd [11]: 8.06 nM
Substance: Alexa647-labeled Bcl-XL (single cysteine mutant 152C) (from UniProt Q07817-1 1-233) (natural protein)

- Kd [12]: 35 nM
- Kd [13]: 35 nM
- Kd [14]: < 3 nM
- Kd [15]: < 16 nM
Substance: Bcl-XL (single cysteine 152C, Alexa647-labeled, recombinant) (from UniProt Q07817-1 1-233) (natural protein)

- EC50 of Bax-mediated permeabilisation of ANTS/DPX liposomes (100 nM Bax) [16]: 1 nM
- ANTS/DPX release after adding increasing Bax to isolated liposomes carrying ~5 nM membrane-bound BimL [17]: 60%
Substance: BimL (single cysteine Q41C, Alexa568-labeled, recombinant) (natural protein)

- EC50 of Bax-mediated permeabilisation of ANTS/DPX liposomes (100 nM Bax) [16]: 100 nM
Substance: BimL-I125E (Alexa568-labeled, recombinant) (natural protein)
